Experimental data taken from publication PMC5651886.

Biological target: pre-fusion RSV F DS-Cav1 (human respiratory syncytial virus (hRSV A strain))
Test: SEC; UPLC on a BEH200 size exclusion chromatography column (Waters Acquity UPLC); final purified protein after thrombin cleavage, 10 mM potassium phosphate pH 7.2

## pre-fusion RSV F DS-Cav1 (natural protein)
  stoichiometry N: 3
